Reference: paper PMC13185593

Test system: HuR
Assay: SPR
Details: SPR: 25 mM Tris pH 7.5, 100 mM KCl, 7 mM b-mercaptoethanol, 10% glycerol, 25 C, UV crosslinking: 5 mM HEPES pH 7.6, 25 mM KCl, 2 mM MgCl2, 3.8% glycerol

## SARS-CoV-2 5'-UTR C241U, biotin (SPR)
  Kd: 339 nM

## SARS-CoV-2 5'-UTR G210U+C241U, biotin (SPR)
  Kd: 72.9 nM
